Data as given in US20240052038A1 (IMMUNOBRAIN CHECKPOINT, published 2024).

B1: human anti-PD-L1 monoclonal antibody 84G09 (antibody, V domains shown)
VH: EVQLVESGGGLVQPGRSLRLSCAASGFTFDDYAMHWVRQTPGKGLEWVSGISWKSNIIGYADSVKGRFTISRDNAKNSLYLQMNSLRAEDTALYYCARDITGSGSYGWFDPWGQGTLVTVSS
VL: DIQMTQSPSSLSASVGDRVTITCRASQSISSYLNWYQQKPGKAPKPLIYVASSLQSGVPSSFSGSGSGTDFTLTISSLQPEDFATYYCQQSYSNPITFGQGTRLEIK
notes: also called anti-human PD-L1 antibody (clone 84G09)
B2: Variant 1-G09 (Fc effector null) (antibody, human IgG1, kappa, L234A L235A)
heavy: EVQLVESGGGLVQPGRSLRLSCAASGFTFDDYAMHWVRQTPGKGLEWVSGISWKSNIIGYADSVKGRFTISRDNAKNSLYLQMNSLRAEDTALYYCARDITGSGSYGWFDPWGQGTLVTVSSASTKGPSVFPLAPSSKSTSGGTAALGCLVKDYFPEPVTVSWNSGALTSGVHTFPAVLQSSGLYSLSSVVTVPSSSLGTQTYICNVNHKPSNTKVDKRVEPKSCDKTHTCPPCPAPEAAGGPSVFLFPPKPKDTLMISRTPEVTCVVVDVSHEDPEVKFNWYVDGVEVHNAKTKPREEQYNSTYRVVSVLTVLHQDWLNGKEYKCAVSNKALPAPIEKTISKAKGQPREPQVYTLPPSREEMTKNQVSLTCLVKGFYPSDIAVEWESNGQPENNYKTTPPVLDSDGSFFLYSKLTVDKSRWQQGNVFSCSVMHEALHNHYTQKSLSLSPG
light: DIQMTQSPSSLSASVGDRVTITCRASQSISSYLNWYQQKPGKAPKPLIYVASSLQSGVPSSFSGSGSGTDFTLTISSLQPEDFATYYCQQSYSNPITFGQGTRLEIKRTVAAPSVFIFPPSDEQLKSGTASVVCLLNNFYPREAKVQWKVDNALQSGNSQESVTEQDSKDSTYSLSSTLTLSKADYEKHKVYACEVTHQGLSSPVTKSFNRGEC
notes: Human IgG1 with L239A, L240A, K327A; kappa light chain; also called null mutant
B3: Variant 3-G09 (Fc effector null-H440Q) (antibody, human IgG1, kappa, L234A L235A)
heavy: EVQLVESGGGLVQPGRSLRLSCAASGFTFDDYAMHWVRQTPGKGLEWVSGISWKSNIIGYADSVKGRFTISRDNAKNSLYLQMNSLRAEDTALYYCARDITGSGSYGWFDPWGQGTLVTVSSASTKGPSVFPLAPSSKSTSGGTAALGCLVKDYFPEPVTVSWNSGALTSGVHTFPAVLQSSGLYSLSSVVTVPSSSLGTQTYICNVNHKPSNTKVDKRVEPKSCDKTHTCPPCPAPEAAGGPSVFLFPPKPKDTLMISRTPEVTCVVVDVSHEDPEVKFNWYVDGVEVHNAKTKPREEQYNSTYRVVSVLTVLHQDWLNGKEYKCAVSNKALPAPIEKTISKAKGQPREPQVYTLPPSREEMTKNQVSLTCLVKGFYPSDIAVEWESNGQPENNYKTTPPVLDSDGSFFLYSKLTVDKSRWQQGNVFSCSVMHEALHNQYTQKSLSLSPG
light: DIQMTQSPSSLSASVGDRVTITCRASQSISSYLNWYQQKPGKAPKPLIYVASSLQSGVPSSFSGSGSGTDFTLTISSLQPEDFATYYCQQSYSNPITFGQGTRLEIKRTVAAPSVFIFPPSDEQLKSGTASVVCLLNNFYPREAKVQWKVDNALQSGNSQESVTEQDSKDSTYSLSSTLTLSKADYEKHKVYACEVTHQGLSSPVTKSFNRGEC
notes: Human IgG1 with L239A, L240A, K327A and H440Q; kappa light chain
B4: Variant 4-G09 (Fc effector null-H315A + H440Q) (antibody, human IgG1, kappa, L234A L235A)
heavy: EVQLVESGGGLVQPGRSLRLSCAASGFTFDDYAMHWVRQTPGKGLEWVSGISWKSNIIGYADSVKGRFTISRDNAKNSLYLQMNSLRAEDTALYYCARDITGSGSYGWFDPWGQGTLVTVSSASTKGPSVFPLAPSSKSTSGGTAALGCLVKDYFPEPVTVSWNSGALTSGVHTFPAVLQSSGLYSLSSVVTVPSSSLGTQTYICNVNHKPSNTKVDKRVEPKSCDKTHTCPPCPAPEAAGGPSVFLFPPKPKDTLMISRTPEVTCVVVDVSHEDPEVKFNWYVDGVEVHNAKTKPREEQYNSTYRVVSVLTVLAQDWLNGKEYKCAVSNKALPAPIEKTISKAKGQPREPQVYTLPPSREEMTKNQVSLTCLVKGFYPSDIAVEWESNGQPENNYKTTPPVLDSDGSFFLYSKLTVDKSRWQQGNVFSCSVMHEALHNQYTQKSLSLSPG
light: DIQMTQSPSSLSASVGDRVTITCRASQSISSYLNWYQQKPGKAPKPLIYVASSLQSGVPSSFSGSGSGTDFTLTISSLQPEDFATYYCQQSYSNPITFGQGTRLEIKRTVAAPSVFIFPPSDEQLKSGTASVVCLLNNFYPREAKVQWKVDNALQSGNSQESVTEQDSKDSTYSLSSTLTLSKADYEKHKVYACEVTHQGLSSPVTKSFNRGEC
notes: Human IgG1 with L239A, L240A, K327A, H315A and H440Q; kappa light chain; also called double mutant
B5: Variant 2-G09 (Fc effector null-H315A) (antibody, human IgG1, kappa, L234A L235A)
heavy: EVQLVESGGGLVQPGRSLRLSCAASGFTFDDYAMHWVRQTPGKGLEWVSGISWKSNIIGYADSVKGRFTISRDNAKNSLYLQMNSLRAEDTALYYCARDITGSGSYGWFDPWGQGTLVTVSSASTKGPSVFPLAPSSKSTSGGTAALGCLVKDYFPEPVTVSWNSGALTSGVHTFPAVLQSSGLYSLSSVVTVPSSSLGTQTYICNVNHKPSNTKVDKRVEPKSCDKTHTCPPCPAPEAAGGPSVFLFPPKPKDTLMISRTPEVTCVVVDVSHEDPEVKFNWYVDGVEVHNAKTKPREEQYNSTYRVVSVLTVLAQDWLNGKEYKCAVSNKALPAPIEKTISKAKGQPREPQVYTLPPSREEMTKNQVSLTCLVKGFYPSDIAVEWESNGQPENNYKTTPPVLDSDGSFFLYSKLTVDKSRWQQGNVFSCSVMHEALHNHYTQKSLSLSPG
light: DIQMTQSPSSLSASVGDRVTITCRASQSISSYLNWYQQKPGKAPKPLIYVASSLQSGVPSSFSGSGSGTDFTLTISSLQPEDFATYYCQQSYSNPITFGQGTRLEIKRTVAAPSVFIFPPSDEQLKSGTASVVCLLNNFYPREAKVQWKVDNALQSGNSQESVTEQDSKDSTYSLSSTLTLSKADYEKHKVYACEVTHQGLSSPVTKSFNRGEC
notes: Human IgG1 with L239A, L240A, K327A and H315A; kappa light chain

Legend:
human PD-L1 [1] = target: T1, human PD-L1 (human, UniProt Q9NZQ7 19-238, limits assumed); assay: SPR
T1 construct: also called hPD-L1; Programmed Death-Ligand 1
T1 sequence (Q9NZQ7 19-238 limits assumed): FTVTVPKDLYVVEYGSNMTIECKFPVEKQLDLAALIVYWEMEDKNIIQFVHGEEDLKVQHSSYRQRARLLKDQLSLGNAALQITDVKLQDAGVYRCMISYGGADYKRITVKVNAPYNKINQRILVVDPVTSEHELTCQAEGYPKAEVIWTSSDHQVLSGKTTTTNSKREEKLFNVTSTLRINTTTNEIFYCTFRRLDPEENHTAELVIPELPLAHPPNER

cynomolgus monkey PD-L1 = cynomolgus monkey PD-L1 (cynomolgus monkey, UniProt G7PSE7 19-238); assay: SPR
Sequence of cynomolgus monkey PD-L1 (G7PSE7 entry or part of it limits assumed): as the sequence (Q9NZQ7 19-238 limits assumed) above, with A33T, A34S, S62N, R68Q, Q82R, F173L, T185A, T192I, H215L counted along it

human PD-L1 [2] = target: T1, human PD-L1; assay: SPR, kinetics
[3] = target: T2, cynomolgus monkey PD-L1 on blood T lymphocytes (cynomolgus monkey, UniProt G7PSE7 19-290); assay: receptor occupancy on blood T lymphocytes by flow cytometry, cynomolgus monkeys, up to day 12 after 13 mg/kg IV
T2 construct: also called PD-L1 receptor (cynomolgus T cells)
T2 sequence (G7PSE7 entry or part of it limits assumed): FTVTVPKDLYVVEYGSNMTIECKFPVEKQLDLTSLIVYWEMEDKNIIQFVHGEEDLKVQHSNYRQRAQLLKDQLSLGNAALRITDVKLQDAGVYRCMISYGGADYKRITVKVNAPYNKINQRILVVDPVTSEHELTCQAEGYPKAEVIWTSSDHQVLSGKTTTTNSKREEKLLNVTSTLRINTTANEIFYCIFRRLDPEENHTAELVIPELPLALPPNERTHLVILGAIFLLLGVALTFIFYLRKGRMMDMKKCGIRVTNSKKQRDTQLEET
Description: (§1) Blood (8 mL) for PBMC isolation was collected at least one day prior to dose and 5, 14, 21 and 30-days post-injection. […] All collected blood and serum samples were frozen for subsequent analysis. […] These antibodies came from a different expression system using transfected HEK cells. Blood (8 mL) for PBMC isolation was collected at least one day prior to dose and 5, 14, 21, 30 and 45-days post-injection. […] All collected blood and serum samples were frozen for subsequent analysis.
(§2) One day prior to dosing (baseline), and on 5, 14, 21, and 30-days post treatment, 8 mL of whole blood was collected for Peripheral Blood Mononuclear Cell (PBMC) isolation and cryopreservation. In the second study, whole blood was also collected also at 45-days post treatment. Samples were analyzed for PD-L1 receptor occupancy on blood T lymphocytes and for Immunophenotype of different immune cell subpopulations. The percentage of PD-L1 receptor occupancy on blood T-lymphocytes by the antibody was assessed using the same method as described above for receptor occupancy in mice.

[4] = target: T2, cynomolgus monkey PD-L1 on blood T …; assay: receptor occupancy on blood T lymphocytes by flow cytometry, cynomolgus monkeys, day 20 after 13 mg/kg IV (antibody cleared)
Description: as §1, §2

Binder	Kd (human PD-L1 [1])	Kd (cynomolgus monkey PD-L1)	Kd (human PD-L1 [2])	receptor occupancy [3]	receptor occupancy [4]
B1	0.43 nM	0.52 nM	0.4 nM	–	–
B2	–	–	–	> 80%	–
B3	–	–	–	> 80%	< 20%
B4	–	–	–	–	< 20%
B5	–	–	–	> 80%	< 20%
